Experiments:
[1] = system: OVX rat; test: Aged rat ovariectomy osteoporosis model, femoral BMD; format: in vivo; conditions: daily sub-cutaneous injections for 4 weeks, started 4 weeks post-OVX
Description: The most widely used non-primate model for pre-clinical osteoporosis studies is the aged rat ovariectomy model (OVX rat). In this model, rapid trabecular bone loss occurs within the first month after ovariectomy (OVX) with an upregulation of both osteoblast and osteoclast activity resulting in increased bone turnover. However, similar to osteoporosis, the levels of osteoclast activity exceed those of osteoblast activity resulting in an imbalance in remodelling and consequently bone loss. […]
Thus, for the testing of potential therapeutic compounds in such a model one has two choices of approach. […] Efficacy can then be measured by assessing the ability of the compound to replace already lost bone. […]
The second approach was adopted to allow the Ostn's therapeutic potential through both anabolic and anti-resorptive efficacies to be assessed. […] Rats were left for a 4-week period following ovariectomy or sham-operation for bone loss to occur and at this point bone loss was assessed by X-ray and DEXA before proceeding with the experiment (groups 1+2). […]
FIG. 10 represents the femoral BMD (i.e. The amount of mineralized bone tissue in a given area, usually calculated as grams per square centimeter) as measured by Piximus™ on excised femurs fixed in 70% ethanol. […]

[2] = molecular target: T1, endogenous GC-A (Homo sapiens, UniProt P16066); test: ANP-stimulated cGMP in GFP-transfected HEK293 cells (endogenous GC-A); conditions: co-incubation with 10 nM peptide (data not shown)
T1 sequence (P16066 33-1061): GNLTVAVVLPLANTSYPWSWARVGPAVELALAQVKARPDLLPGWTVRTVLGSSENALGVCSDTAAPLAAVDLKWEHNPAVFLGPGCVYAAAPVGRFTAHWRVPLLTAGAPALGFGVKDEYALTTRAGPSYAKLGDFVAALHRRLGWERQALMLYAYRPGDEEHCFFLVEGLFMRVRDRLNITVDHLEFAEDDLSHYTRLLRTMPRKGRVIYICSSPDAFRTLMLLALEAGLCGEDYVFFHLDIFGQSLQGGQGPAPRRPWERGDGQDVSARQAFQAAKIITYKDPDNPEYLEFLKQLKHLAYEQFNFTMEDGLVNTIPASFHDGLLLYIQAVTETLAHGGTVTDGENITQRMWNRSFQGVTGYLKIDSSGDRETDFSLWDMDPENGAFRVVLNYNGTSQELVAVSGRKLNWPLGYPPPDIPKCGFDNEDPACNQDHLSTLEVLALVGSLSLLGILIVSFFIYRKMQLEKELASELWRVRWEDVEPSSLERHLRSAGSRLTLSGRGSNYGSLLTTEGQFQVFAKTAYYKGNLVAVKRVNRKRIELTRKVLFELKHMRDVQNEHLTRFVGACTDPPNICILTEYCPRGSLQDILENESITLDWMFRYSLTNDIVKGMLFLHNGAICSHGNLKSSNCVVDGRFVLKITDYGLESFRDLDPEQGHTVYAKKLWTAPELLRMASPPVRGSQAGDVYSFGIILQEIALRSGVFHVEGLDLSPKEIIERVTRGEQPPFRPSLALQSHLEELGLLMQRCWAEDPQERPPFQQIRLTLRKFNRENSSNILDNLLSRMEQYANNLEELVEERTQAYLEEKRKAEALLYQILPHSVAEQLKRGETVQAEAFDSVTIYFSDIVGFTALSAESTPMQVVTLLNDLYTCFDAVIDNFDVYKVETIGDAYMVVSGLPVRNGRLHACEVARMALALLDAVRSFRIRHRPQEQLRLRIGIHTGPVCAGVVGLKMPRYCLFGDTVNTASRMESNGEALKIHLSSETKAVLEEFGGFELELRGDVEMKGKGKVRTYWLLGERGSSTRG

B1: rhOstn[27-133]: N-terminal 6 histidine-tagged recombinant human Ostn amino acids 27-133 produced in E.coli, SEQ ID NO: 57 (protein)
chain: SVDVTTTEAFDSGVIDVQSTPTVREEKSATDLTAKLLLLDELVSLENDVIETKKKRSFSGFGSPLDRLSAGSVDHKGKQRKVVDHPKRRFGIPMDRIGRNRLSNSRG
modifications: N-terminal His6 tag; recombinant mature osteocrin
For B1, the “gain in femoral BMD over OVX-saline or OVX-mock treated rats” value [1] was 6% and the “effect on ANP signalling” value [2] was “no effect”.
